In paper PMC3643581:

Target: rPTB4 (pQE-PTB4) (UniProt P26599 1-557)
Assay: UV cross-linking

Chain of rPTB4 (pQE-PTB4) (P26599 whole entry): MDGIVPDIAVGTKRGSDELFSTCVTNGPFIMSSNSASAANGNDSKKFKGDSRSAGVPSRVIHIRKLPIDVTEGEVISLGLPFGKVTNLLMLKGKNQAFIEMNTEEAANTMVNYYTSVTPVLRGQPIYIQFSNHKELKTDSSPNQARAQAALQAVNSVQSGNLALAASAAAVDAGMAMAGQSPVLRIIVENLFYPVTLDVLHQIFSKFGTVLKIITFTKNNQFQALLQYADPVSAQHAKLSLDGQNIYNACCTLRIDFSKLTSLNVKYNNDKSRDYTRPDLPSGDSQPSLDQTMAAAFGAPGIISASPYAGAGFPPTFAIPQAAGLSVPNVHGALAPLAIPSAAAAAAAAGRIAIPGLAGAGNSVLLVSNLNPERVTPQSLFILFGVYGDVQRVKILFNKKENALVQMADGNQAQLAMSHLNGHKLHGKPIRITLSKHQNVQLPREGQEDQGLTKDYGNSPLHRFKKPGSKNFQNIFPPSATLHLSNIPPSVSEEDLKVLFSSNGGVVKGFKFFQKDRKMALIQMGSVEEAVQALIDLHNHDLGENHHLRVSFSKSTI

**Q.** Does GGGAGACAAGCUCCUCCUGCGCUCUUUGCUUGCCCUGCUGUGUCGAAUU (ssRNA) [MBNL SELEX RNA D12] bind?
**A.** Result: no binding
